The labels stand for the following.
B1: FX-76-1-m3 (antibody, V domains shown)
VH: QVQLLETGGGLVKPGQSLKLSCAASGFTFTSFAMHWVRQPPGKGLEWVAVVSYDGNYKYYADSVQGRFTISRDNSKNTLYLQMNSLRAEDTAVYYCAKDSRRRSLLYFEWLSQGYFNPWGQGTTLTVSS
VL: DIQMTQSPSSLSASVGDRVTITCRSSQSITFDYKNYLAWYQQKPGKAPKLLIYWGSYLESGVPSRFSGSGSGTDFTLTISSLQPEDFATYYCQQHYRTPPSFGQGTKVEIK
B2: FX-5-6-m3 (antibody, V domains shown)
VH: QVQLVESGGGVVQPGRSLRLSCAASGFTFSTYAMHWVRQAPGKGLEWVCVISYDANYKYYADSVKGRFTCSRDNSKNTLYLQMNSLRAEDTAVYYCARDSRLRSLLYFEWLSQGYFDYWGQGTLVTVSS
VL: EIVMTQSPATLSVSPGERATLSCRSSQSITFDYKNYLAWYQQKPGQAPRLLIYWGSTRATGIPARFSGSGSGTEFTLTISSLQSEDFAVYYCQQHYRTPPSFGQGTKVEIK
B3: FX-7-6-m3 (antibody, V domains shown)
VH: EVQLLESGGGLVQPGGSLRLSCAASGFTFSSYAMHWVRQAPGKGLEWVSVISYDANYKYYADSVKGRFTISRDNSKNTLYLQMNSLRAEDTAVYYCAKDSQLRSLLYFEWLSQGYFDYWGQGTTLTVSS
VL: B2 VL
B4: FX-3-6-m3 (antibody, V domains shown)
VH: B2 VH with C49A, C70I, R98K, R101Q
VL: B2 VL
B5: FX-10-6-m3 (antibody, V domains shown)
VH: QVQLVQSGAEVKKPGSSVKVSCKASGFTFSTYAIHWVRQAPGQGLEWMGVISYDANYKYYAQKFQGRVTITRDNSKSTAYMELSSLRSEDTAVYYCARDSRLRSLLYFEWLSQGYFDYWGQGTTLTVSS
VL: B2 VL
B6: FX-3-2-m3 (antibody, V domains shown)
VH: B2 VH with C49A, C70I, R98K, R101Q
VL: B1 VL with Y57S, E59Q
B7: FX-6-2-m3 (antibody, V domains shown)
VH: B2 VH with S30D, C49A, C70I
VL: B1 VL with Y57S, E59Q
B8: FX-12-2-m3 (antibody, V domains shown)
VH: B5 VH with S16A, H35N, P41T, I70M, N74T, K76I, R101Q
VL: B1 VL with Y57S, E59Q
B9: FX-4-2-m3 (antibody, V domains shown)
VH: B2 VH with T28D, C49A, C70I
VL: B1 VL with Y57S, E59Q
B10: FX-5-2-m3 (antibody, V domains shown)
VH: B2 VH
VL: B1 VL with Y57S, E59Q
B11: FX-3-3-m3 (antibody, V domains shown)
VH: B2 VH with C49A, C70I, R98K, R101Q
VL: B1 VL with W54A, G55A, Y57S, E59Q
B12: FX-10-2-m3 (antibody, V domains shown)
VH: B5 VH
VL: B1 VL with Y57S, E59Q

Positions count from the first letter of the chain named.

In the first assay the target is H1 HA (strain not stated) (influenza A virus H1). Kind of assay: HA binding EC50; column head not printed: H1 HA and pM inferred.
Usually EC50 stands for the concentration at which the effect is half-maximal. Low values mean greater potency, high ones weaker potency. B1 yielded an EC50 of 3.8 pM.

The next assay addresses polyclonal human IgG. Nature of the assay: BLI (Octet) polyreactivity. (Biolayer interferometry detects binding as a change in optical thickness at a sensor tip.)
In turn, B2 gave a poly reactivity octet max binding response (nm) of 1.13 nm. Still for that read-out and setting: the result for B3 reads 0.703 nm; that for B4, 0.774 nm; that for B5, 0.862 nm. The same measure, in the same setting: with B6 the figure was 0.521 nm; with B7, 0.798 nm. B8 came in with a poly reactivity octet max binding response (nm) of 0.391 nm. The same measure, in the same setting: with B9 the figure was 0.758 nm; with B10, 0.992 nm; with B11, 0.485 nm. The same measure, in the same setting: the result for B12 reads 0.681 nm.

Values taken from patent publication US20230257449A1.
